Data set [1] addresses Human TRF1 TRFH domain (residues 65–267) (human) (UniProt P54274). Description: ITC. On the technique in general: Isothermal titration calorimetry measures the heat released or taken up as one component is titrated into another.
Data set [2] deals with the molecule itself. Kind of data set: crystal structure.

Broadly, the Kd is the free concentration of one partner at which half of the binding sites on the other are occupied at equilibrium, for simple one-to-one binding. Lower therefore signals tighter binding. As a reminder, the stoichiometry N is a count of units in the complex or per binding partner.

“Human TERB1 TBM (TRF1-binding motif, residues 642–656) (from UniProt Q8NA31-1 642-656) (peptide)” returned a dissociation constant (Kd) in data set [1] of 5.6 µM. This counts as single-digit micromolar.

B1: Human TRF1 TRFH domain (residues 65–267) (domain or fragment, UniProt P54274 65-267, looked up)
chain: GLVAEAEAVAAGWMLDFLCLSLCRAFRDGRSEDFRRTRNSAEAIIHGLSSLTACQLRTIYICQFLTRIAAGKTLDAQFENDERITPLESALMIWGSIEKEHDKLHEEIQNLIKIQAIAVCMENGNFKEAEEVFERIFGDPNSHMPFKSKLLMIISQKDTFHSFFQHFSYNHMMEKIKSYVNYVLSEKSSTFLMKAAAKVVESK
As to B1, the “stoichiometry N” value in data set [2] stood at 2.
